Values belong to the molecule of their own block, whether it stands above or below them.
Legend:
[1] = biological target: endogenous Rim2 of PC12 cells; assay: cell-based or functional assay
[2] = biological target: T1, constitutively active bovine Rab3A (Q81L), full-length, bait in pBTM116 (bovine, UniProt P11023 1-220); assay: yeast two-hybrid, liquid β-galactosidase assay
T1 construct: also called active Rab3A (Q81L); not shown: fusion partner encoded by bait vector pBTM116
T1 sequence (looked up): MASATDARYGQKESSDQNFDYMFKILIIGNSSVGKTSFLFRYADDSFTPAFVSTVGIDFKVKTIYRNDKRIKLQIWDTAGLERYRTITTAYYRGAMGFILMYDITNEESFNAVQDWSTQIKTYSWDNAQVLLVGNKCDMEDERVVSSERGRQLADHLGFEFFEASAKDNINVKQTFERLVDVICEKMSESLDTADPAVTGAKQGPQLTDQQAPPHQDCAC

- 8-Br-cAMP (1 mM)-induced, Ca2+-dependent GH secretion [1]: 34.9%
Molecule: wild-type cAMP-GEFII (expressed in PC12 cells from pSRα) (from UniProt Q9EQZ6 1-1011)

- binding result [2]: binds
B1: rat Rim1 zinc finger domain (amino acid residues 1-204), prey in pVP16 (other, UniProt Q9JIR4 1-204, looked up)
chain: MSSAVGPRGPRPPTVPPPMQELPDLSHLTEEERNIIMAVMDRQKEEEEKEEAMLKCVVRDMAKPAACKTPRNAESQPHQPPLNIFRCVCVPRKPSSEEGGPERDWRLHQQFESYKEQVRKIGEEARRYQGEHKDDAPTCGICHKTKFADGCGHLCSYCRTKFCARCGGRVSLRSNNEDKVVMWVCNLCRKQQEILTKSGAWFFG
notes: range 1-204; not shown: fusion partner encoded by prey vector pVP16
